In US20240252686A1 (SKYLINE THERAPEUTICS, published 2024):

B1: bi-valent Nb24, product expressed by pGCB108-ITR130-AMDF1Nb24-5-(G4S)2-Nb24-7-HA (VHH)
chain: EVQLQESGGGLVQPGGSLRLSCTASGFTFDDPDVGWFRQAPGNECELVSTISKDGSTYYTDSVKGRFTISRDYAKNTVYLQMNSLRAEDTAVYYCAADSNPIAPIRTCLGWYNYWGQGTLVTVSSGGGGSGGGGSEVQLQESGGGLVQPGGSLRLSCTASGFTFDDPDVGWFRQAPGNECELVSTISKDGSTYYTDSVKGRFTISRDYAKNTVYLQMNSLRAEDTAVYYCAADSNPIAPIRTCLGWYNYWGQGTLVTVSSYPYDVPDYA
notes: also called 24-5-G4S2-24-7
B2: mono-valent Nb24 with HA tag, product expressed by pGCB108-ITR130-AMDF1huNb24-5-hGHpA (VHH)
VHH: EVQLQESGGGLVQPGGSLRLSCTASGFTFDDPDVGWFRQAPGNECELVSTISKDGSTYYTDSVKGRFTISRDYAKNTVYLQMNSLRAEDTAVYYCAADSNPIAPIRTCLGWYNYWGQGTLVTVSS
notes: Used as supernatant of transfected Expi293 cells, detected by anti-HA; The junction between Nb24 and the HA tag is not spelled out; also called HuNb24-5-HA; Nb24-5-HA
B3: Beovu-scFv with HA tag, product expressed by pGCB108-ITR130-AMDF1-Beovu-scFv (scFv)
scFv: EIVMTQSPSTLSASVGDRVIITCQASEIIHSWLAWYQQKPGKAPKLLIYLASTLASGVPSRFSGSGSGAEFTLTISSLQPDDFATYYCQNVYLASTNGANFGQGTKLTVLGGGGGSGGGGSGGGGSGGGGSEVQLVESGGGLVQPGGSLRLSCTASGFSLTDYYYMTWVRQAPGKGLEWVGFIDPDDDPYYATWAKGRFTISRDNSKNTLYLQMNSLRAEDTAVYYCAGGDHNSGWGLDIWGQGTLVTVSSYPYDVPDYA
notes: Benchmark anti-VEGF scFv; supernatant of transfected Expi293 cells; also called Beovu-scFv-HA; F1F3-HA
B4: bi-valent Nb24, product expressed by pGCB108-ITR130-AMDF1Nb24-5-(G4S)3-Nb24-5-HA (VHH)
chain: EVQLQESGGGLVQPGGSLRLSCTASGFTFDDPDVGWFRQAPGNECELVSTISKDGSTYYTDSVKGRFTISRDYAKNTVYLQMNSLRAEDTAVYYCAADSNPIAPIRTCLGWYNYWGQGTLVTVSSGGGGSGGGGSGGGGSEVQLQESGGGLVQPGGSLRLSCTASGFTFDDPDVGWFRQAPGNECELVSTISKDGSTYYTDSVKGRFTISRDYAKNTVYLQMNSLRAEDTAVYYCAADSNPIAPIRTCLGWYNYWGQGTLVTVSSYPYDVPDYA
notes: Two copies of Nb24 in a single polypeptide; supernatant of transfected Expi293 cells; also called 24-5-G4S3-24-5
B5: bi-valent Nb24, product expressed by pGCB108-ITR130-AMDF1Nb24-5-(G4S)2-Nb24-5-HA (VHH)
chain: B1 chain
notes: Two copies of Nb24 in a single polypeptide; supernatant of transfected Expi293 cells; also called 24-5-G4S2-24-5
B6: bi-valent Nb24, product expressed by pGCB108-ITR130-AMDF1Nb24-5-(G4S)1-Nb24-5-HA (VHH)
chain: EVQLQESGGGLVQPGGSLRLSCTASGFTFDDPDVGWFRQAPGNECELVSTISKDGSTYYTDSVKGRFTISRDYAKNTVYLQMNSLRAEDTAVYYCAADSNPIAPIRTCLGWYNYWGQGTLVTVSSGGGGSEVQLQESGGGLVQPGGSLRLSCTASGFTFDDPDVGWFRQAPGNECELVSTISKDGSTYYTDSVKGRFTISRDYAKNTVYLQMNSLRAEDTAVYYCAADSNPIAPIRTCLGWYNYWGQGTLVTVSSYPYDVPDYA
notes: Two copies of Nb24 in a single polypeptide; supernatant of transfected Expi293 cells; also called 24-5-G4S1-24-5
B7: bi-valent Nb24, product expressed by pGCB108-ITR130-AMDF1Nb24-5-(G4S)4-Nb24-5-HA (VHH)
chain: EVQLQESGGGLVQPGGSLRLSCTASGFTFDDPDVGWFRQAPGNECELVSTISKDGSTYYTDSVKGRFTISRDYAKNTVYLQMNSLRAEDTAVYYCAADSNPIAPIRTCLGWYNYWGQGTLVTVSSGGGGSGGGGSGGGGSGGGGSEVQLQESGGGLVQPGGSLRLSCTASGFTFDDPDVGWFRQAPGNECELVSTISKDGSTYYTDSVKGRFTISRDYAKNTVYLQMNSLRAEDTAVYYCAADSNPIAPIRTCLGWYNYWGQGTLVTVSSYPYDVPDYA
notes: Two copies of Nb24 in a single polypeptide; supernatant of transfected Expi293 cells; also called 24-5-G4S4-24-5

What was measured:
[1] = target: T1, VEGFA-165 (R&D systems 293-VE/CF) (human, UniProt P15692-4 27-191); assay: competitive ELISA as in Example 7: inhibition of VEGFR2/KDR Fc binding to coated VEGFA-165
T1 construct: Coated on ELISA plates or added in solution to reporter cells; also called human VEGF; human VEGFA
Protocol: After removing the blocker, the detection antibody (rabbit anti-human FC HRP, Thermo) diluted 1:5000 with the blocking buffer, and added 50 μl/well incubated at RT for 1h with 250 rpm gentle shaking. After washing the ELISA plate with 1×TBST for 3 times, the TMB substrate was added the plate (50 μl/well); after the incubation at RT for 5-10 min, 2M H₂SO₄ was added to stop the TMB reaction. OD450 and OD525 of the ELISA plate were detected.
The mono-valent and bi-valent Nb24s in the supernatants were quantified by western blot as described in Example 2, and diluted to a series of concentrations.

[2] = target: T1, VEGFA-165 (R&D systems 293-VE/CF); assay: ELISA, VEGFA-165 coated, supernatant, anti-HA detection
Protocol: (§1) After removing the blocker, the primary antibody (rabbit anti-HA, Thermo, PA1-985) was diluted (1:5000) with the blocking buffer (StartingBlock™ T20 (TBS) Blocking Buffer, Catalog number: 37543 of Thermo Fisher Scientific), and added to ELISA plate (50 μl/well), followed by the incubation at RT for 1h with 250 rpm gentle shaking. After washing with 1×TBST buffer for 3 times, the secondary antibody (Goat anti-rabbit-HRP, Invitrogen, 3146) was diluted (1:5000) with the blocking buffer, and added to the ELISA plate (50 μl/well), followed by the incubation at RT for 1h with gentle shaking. After washing the ELISA plate with 1×TBST for 3 times, the TMB substrate (Thermo Scientific, REF34028) was added the plate (50 μl/well); after the incubation at RT for 5-10 min, 2M H₂SO₄ was added to stop the TMB reaction. OD450 and OD525 of the ELISA plate were detected.

[3] = target: T1, VEGFA-165 (R&D systems 293-VE/CF); assay: ELISA as in Example 5, VEGFA-165 coated, anti-HA detection
Protocol: as §1

T1 sequence (P15692 other isoform, or with tags, fused parts or gaps limits assumed): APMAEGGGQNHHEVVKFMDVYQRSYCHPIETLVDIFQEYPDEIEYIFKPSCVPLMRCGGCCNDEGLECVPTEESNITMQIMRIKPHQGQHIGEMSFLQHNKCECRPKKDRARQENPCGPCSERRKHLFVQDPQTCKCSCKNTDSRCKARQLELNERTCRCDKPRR

Binder | EC50 [3] [nM] | other results
B1 | – | IC50 [1]: 25.6 nM; fold better IC50 than mono-valent Nb24 [1]: 5 fold
B2 | – | IC50 [1]: 132 nM
B3 | – | binding result [2]: binds
B4 | 346 | –
B5 | 376 | –
B6 | 400 | –
B7 | 464 | –
